From patent publication US20250163116A1, “NEW METHOD TO TREAT INFECTIOUS DISEASES” (INSERM (INSTITUT NATIONAL DE LA SANTÉ ET DE LA RECHERCHE …, priority 2022, published 2025)

B1: ANGPTL4: Recombinant human ANGPTL4 (Angiopoietin-like 4), full length, SEQ ID NO: 1, purchased from R&D Systems (protein, listed as Homo sapiens)
chain: MSGAPTAGAALMLCAATAVLLSAQGGPVQSKSPRFASWDEMNVLAHGLLQLGQGLREHAERTRSQLSALERRLSACGSACQGTEGSTDLPLAPESRVDPEVLHSLQTQLKAQNSRIQQLFHKVAQQQRHLEKQHLRIQHLQSQFGLLDHKHLDHEVAKPARRKRLPEMAQPVDPAHNVSRLHRLPRDCQELFQVGERQSGLFEIQPQGSPPFLVNCKMTSDGGWTVIQRRHDGSVDFNRPWEAYKAGFGDPHGEFWLGLEKVHSITGDRNSRLAVQLRDWDGNAELLQFSVHLGGEDTAYSLQLTAPVAGQLGATTVPPSGLSVPFSTWDQDHDLRRDKNCAKSLSGGWWFGTCSHSNLNGQYFRSIPQQRQKLKKGIFWKTWRGRYYPLQATTMLIQPMAAEAAS
B2: nANGPTL4: N-terminal fragment of ANGPTL4, aa 26-164, SEQ ID NO: 24, purchased from R&D Systems (protein)
chain: GPVQSKSPRFASWDEMNVLAHGLLQLGQGLREHAERTRSQLSALERRLSACGSACQGTEGSTDLPLAPESRVDPEVLHSLQTQLKAQNSRIQQLFHKVAQQQRHLEKQHLRIQHLQSQFGLLDHKHLDHEVAKPARRK
modifications: nANGPTL4
B3: cANGPTL4: C-terminal fragment of ANGPTL4, aa 164-406, fibrinogen-like domain, purchased from R&D Systems (protein, listed as Homo sapiens)
chain: RLPEMAQPVDPAHNVSRLHRLPRDCQELFQVGERQSGLFEIQPQGSPPFLVNCKMTSDGGWTVIQRRHDGSVDFNRPWEAYKAGFGDPHGEFWLGLEKVHSITGDRNSRLAVQLRDWDGNAELLQFSVHLGGEDTAYSLQLTAPVAGQLGATTVPPSGLSVPFSTWDQDHDLRRDKNCAKSLSGGWWFGTCSHSNLNGQYFRSIPQQRQKLKKGIFWKTWRGRYYPLQATTMLIQPMAAEAAS

Legend:
[1] = system: Src kinase and VE-cadherin phosphorylation; test: Src kinase and VE-cadherin phosphorylation in infected HDMECs; format: cell-based, human; settings: added 30 min after initiation of infection
Description: (§1) In contrast to brain microvascular endothelial cells that resist to meningococcal infection, the integrity of dermal microvascular endothelial cell (HDMECs) monolayer was massively impaired upon infection, as observed with the loss of adherens junctions and cell detachment (data not shown). Since HDMEC poorly produces ANGPTL4 as compared to HBMEC (data not shown), we analysed whether the addition of recombinant human ANGPTL4 might exert a protective effect on these cells. […] Additionally, while infection was accompanied by the massive release of inflammatory cytokines (TNF-α, IL-6, IL-8), markers of vascular inflammation (E-selectin, ICAM-1, VCAM-1), and markers of endothelial cell alteration (Endoglin, Thrombomodulin), all these markers were reduced by 35 to 80% upon treatment with ANGPTL4 (data not shown).

[2] = system: HDMEC infected with N. meningitidis 2C4.3; test: Caspase-3/7 apoptosis detection in infected HDMECs (IncuCyte); format: cell-based, human; settings: Caspase-3/7 reagent, real time over 9 h, 1 μg/mL
Procedure: FIG. 1. Exogenous ANGPTL4 exerts protective effects on dermal microvascular endothelial cells infected by N. meningitidis. A. HDMECs were infected with Nm 2C4.3 for 30 min and treated with 1 μg/mL of recombinant human ANGPTL4 for 2 h 30. Cells were fixed and stained for cellular actin, VE-cadherin and DAPI and analyzed by fluorescent microscopy. Quantifications of VE-cadherin enrichment at intercellular junctions and of intercellular spaces area were performed on 30 fields with Image J software. Kruskal-Wallis test ** P<0.001; P<0.0001. B. HDMEC were either uninfected or infected with N. meningitidis 2C4.3 for 30 min and treated with 1 μg mL−1 of recombinant human ANGPTL4, its N-terminal portion (nANGPTL4) or its C-terminal portion (cANGPTL4) for 2 h 30. Caspase-3/7 reagent was added to detect apoptosis in real time over 9 h using the IncuCyte® Live-Cell Analysis System

[3] = system: HDMECs infected with N. meningitidis; test: Release of inflammatory cytokines and markers of vascular inflammation and endothelial alteration by infected HDMECs; format: cell-based, human; settings: data not shown
Description: as §1

[4] = system: SCID mice grafted with human skin infected with Nm 2C4.3; test: Vascular lesions in SCID mice grafted with human skin infected with N. meningitidis (4 h); format: in vivo; settings: for vessel thrombosis in skin grafts / integrity of the endothelial cell junctions (VE-cadherin staining) / vascular colonization of human dermal vessels at 4 hours post-infection: 1 μg/mouse i.v.; for vessel thrombosis in skin grafts: 4 h post-infection
Procedure: FIG. 7: ANGPTL4 reduces signs of thrombosis, vascular injury and inflammation. A-D, SCID mice grafted with human skins were infected intravenously with Nm 2C4.3 wild-type strain (5×10^6 bacteria) or left uninfected. A period of 30 min or 2 h after bacterial challenge, mice received 1 μg of recombinant human ANGPTL4, nANGPTL4 or cANGPTL4 intravenously or the vehicle as a control. Mice were killed at 4 h post-challenge. This experiment was performed twice with n=3 or 4 mice per group, using skin from two different donors. A, A schematic representation of the protocols used in vivo. B, Control bacteraemia 4 h post-infection (mean±s.e.m.). C, Bacterial colonization within the skin grafts as assessed by immunofluorescence analysis was quantified using ImageJ software as the ratio between bacterial surface colonization and the lumen surface of the vessels. A total of 30-50 vessels per mouse were analysed. Error bars show mean±s.e.m. D, Thrombus formation within the skin grafts was assessed by immunofluorescence analysis and quantified using ImageJ as the ratio between thrombus surfaces and the lumen surface of the vessels. A total of 30-50 vessels per mouse were analysed. Error bars show mean±s.e.m.; *** P<0.0001; ns P=0.0541 two-tailed Student's t-test.
Six-week-old CB17/Icr-Prkdcscid female mice were obtained from Janvier Labs. Human skin tissues were obtained from adult patients undergoing plastic surgery in the Service de Chirurgie Plastique et Reconstructive of the Groupe Hospitalier Saint-Joseph. […] Experimental procedures were performed as previously described in accordance with the guidelines of the Institut National de la Santé et de la Recherche Médicale and conformed to the European ethical legislation (Directive 2010/63/EU). The experimental protocol was approved by the Animal Experimentation Ethics Committee of the Université Paris Descartes (consent forms CEEA34.O.J.L.039.12 and 2018012515596498). […]. A skin flap was created and a full thickness human skin graft was placed onto the wound bed. The transplants were held in place with 6-0 non-absorbable monofilament suture materials, and the flap was then sutured above the transplant. Grafted mice were infected 4-6 weeks after human skin transplantation. N. meningitidis was grown overnight at 37° C. on GCB agar plates prepared without iron and supplemented with 15 μM deferoxamine (Desferal, Novartis). Bacterial colonies were harvested and cultured in RPMI media with 1% BSA medium and 0.06 μM deferoxamine with gentle agitation to reach the exponential phase of growth. Bacteria were then resuspended in physiological saline solution. Mice were infected intravenously with 200 μl (5×10^6 bacteria) of this bacterial suspension. A 10 mg dose of human holotransferrin (R&D Systems) was administered intraperitoneally just before infection. Mice were killed at 4 h after infection. Human skin grafts were carefully collected using a sterile cutter. The tissue was washed in PBS and fixed overnight at 4° C. in 4% paraformaldehyde in phosphate buffer. After washing in phosphate buffer, the specimens were embedded in OCT medium and then frozen at −80° C. Sections of the dermis (7 μm thick) were immobilized on Superfrost Plus microscope slides and subjected to immunofluorescence analysis. Sections were incubated with the primary antibodies for 1 h in PBS/3% BSA then DAPI was added to Alexa-conjugated secondary antibodies for 1 h. After additional washing, coverslips were mounted in glycergel (Dako) and were further analysed using a slide scanner (Lamina, Perkin Elmer). Analysis of the images was performed using ImageJ software (NIH). […]

[5] = system: HDMECs infected with Nm 2C4.3; test: Integrity of HDMEC monolayers infected with N. meningitidis (VE-cadherin at intercellular junctions, immunofluorescence); format: cell-based, human; settings: uninfected HDMECs

Molecule	Src kinase and VE-cadherin phosphorylation [1]	cell apoptosis induced by meningococcal infection [2]	reduction of TNF-α, IL-6, IL-8, E-selectin, ICAM-1, VCAM-1, Endoglin, Thrombomodulin release [3]	vessel thrombosis in skin grafts [4]	integrity of the endothelial cell junctions (VE-cadherin staining) ([4]; data not shown)	effect on inflammatory markers upon administration at 2 h ([4]; administration 2 h post-infection, data not shown)	reduction of serum levels of TNF-α, IL-6, IL-8, soluble E-selectin, ICAM-1, VCAM-1, Angiopoetin-2, Thrombomodulin ([4]; mice sera, early administration (30 min), data not shown)	effect on organization of the adherens junctions formed by HDMECs [5]	vascular colonization of human dermal vessels at 4 hours post-infection [4]	production of proinflammatory factors and biomarkers of vascular inflammation ([4]; 1 μg/mouse, data not shown)
B1	significantly reduced	inhibited cell apoptosis	35 to 80%	largely reduced vessel thrombosis	preserved the integrity of the endothelial cell junctions	no effect	60-80%	no significant effect	–	–
B2	–	–	–	reduced vessel thrombosis	preserved the integrity of the endothelial cell junctions	–	–	–	no effect on vascular colonization	–
B3	–	–	–	reduced vessel thrombosis	–	–	–	–	no effect on vascular colonization	most efficient at preventing the production of proinflammatory factors and biomarkers of vascular inflammation
